# Data: the supplement of paper PMC12764529
# ± gives the half width of the 95% confidence interval.
# Legend:
# [1] = folding stability dG unfold (combined trypsin and chymotrypsin); higher = more stable
# In short: (§1)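 K50 was inferred by Bayesian fitting of sequencing counts obtained after protease digestion of designed mini-proteins. Unfolding free energy was derived by comparison with a sequence-predicted unfolded-state K50 and a shared folded-state K50, for each protease or both combined. The mini-proteins were under 80 residues, had no cysteine, were carried in a PA-tagged cDNA display construct, and were kept only if AlphaFold2 dimer inter-PAE exceeded 15.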
# [2] = folding stability dG unfold from chymotrypsin proteolysis; higher = more stable
# In short: as §1
# [3] = folding stability dG unfold from trypsin proteolysis; higher = more stable
# In short: as §1
sequence,measurement,setting,value
SAGGSAGGSEEKKIKIKIKIERDPENPNTYRITIEDEETGERYELEITVPPPKPKVFFFPKKKSAGGSAGGS [r12_985_TrROS_Hall],folding stability dG unfold,[1],2.18 ± 0.17 kcal/mol
same,folding stability dG unfold,[2],2.19 ± 0.12 kcal/mol
same,folding stability dG unfold,[3],2.24 ± 0.023 kcal/mol
SVYIPIPMGDPEGLKEMLDFIKNILEKNQENGYENVPIPIHMPNGGPFEFPIDPNSTLEEQLDQIEKFIESA [r9_127_TrROS],folding stability dG unfold,[1],1.15 ± 0.24 kcal/mol
same,folding stability dG unfold,[2],0.663 ± 0.078 kcal/mol
same,folding stability dG unfold,[3],1.56 ± 0.11 kcal/mol
SAGGSPLVLTSEVEKKFENSPDKTVEKYKIKVTVYDPKTGKKLKEIELEKTVEKGGNEKIEEPIILSAGGSA [r2_271_JUSTAS],folding stability dG unfold,[1],0.419 ± 0.16 kcal/mol
same,folding stability dG unfold,[2],0.487 ± 0.21 kcal/mol
same,folding stability dG unfold,[3],0.146 ± 0.084 kcal/mol
SAGGSAGGSAGGSKTLTPEEIKKLLDEAKKKGYKTVKITVKNKNGKTYTFTIKIPKEDLSAGGSAGGSAGGS [r4_342_TrROS_Hall],folding stability dG unfold,[1],2.95 ± 0.23 kcal/mol
same,folding stability dG unfold,[2],3.13 ± 0.079 kcal/mol
same,folding stability dG unfold,[3],2.76 ± 0.18 kcal/mol
SAMKVTITVTKHTLPDGTPYYTVTITDPSTGKTFSGPVSSEEEAKATAQALADKIEAEGTPVTITFTDDSAG [r14_263_JUSTAS],folding stability dG unfold,[1],3.99 ± 0.14 kcal/mol
same,folding stability dG unfold,[2],4.03 ± 0.086 kcal/mol
same,folding stability dG unfold,[3],3.97 ± 0.23 kcal/mol
SAGGSAGGSAGGMLVRIPRGDKGFVLEIETDGVRTVEEFDGTEEEIREYAEKNGFEILESAGGSAGGSAGGS [r10_506_JUSTAS],folding stability dG unfold,[1],0.892 ± 0.071 kcal/mol
same,folding stability dG unfold,[2],0.883 ± 0.051 kcal/mol
same,folding stability dG unfold,[3],0.771 ± 0.017 kcal/mol
SAGGSAGGSAGGNVITVFIPNYQIITIHLSPEPGRIPIEVYPPNGKKEEWPIPDIKELIQSAGGSAGGSAGG [r7_769_TrROS],folding stability dG unfold,[1],1.01 ± 0.13 kcal/mol
same,folding stability dG unfold,[2],-0.306 ± 0.14 kcal/mol
same,folding stability dG unfold,[3],1.6 ± 0.13 kcal/mol
SAGGGLLEELARELGFEAEIEEIPETGILRITLRPEDGSEVEITVKVTRIPGLGEVKLEVLEVKVRPTSAGG [r13_936_TrMRF],folding stability dG unfold,[1],3.33 ± 0.2 kcal/mol
same,folding stability dG unfold,[2],3.31 ± 0.052 kcal/mol
same,folding stability dG unfold,[3],3.15 ± 0.16 kcal/mol
SAGGSAGGSAGGMKVLVIFEDNKIPRVVSEEELKKIPLPFKIIPLGPDPEEAKKILEKSSAGGSAGGSAGGS [r10_419_TrMRF],folding stability dG unfold,[1],0.434 ± 0.27 kcal/mol
same,folding stability dG unfold,[2],0.34 ± 0.39 kcal/mol
same,folding stability dG unfold,[3],0.616 ± 0.13 kcal/mol
SAGGSAGGSAGGSMPTYRITVEVDGKKYTITVREGMSPEEIAKRLKELYPNLTVKIEPVSAGGSAGGSAGGS [r4_155_TrROS_Hall],folding stability dG unfold,[1],4.04 ± 0.13 kcal/mol
same,folding stability dG unfold,[2],4.07 ± 0.15 kcal/mol
same,folding stability dG unfold,[3],3.75 ± 0.13 kcal/mol
SAEELARRLRELGLEVEIVRIERERRPDGTIRIEVRLDGELVAELEVRLPPPPPPVEVVRDADGRERRVRSA [r9_442_TrROS_Hall],folding stability dG unfold,[1],1.9 ± 0.27 kcal/mol
same,folding stability dG unfold,[2],1.82 ± 0.4 kcal/mol
same,folding stability dG unfold,[3],1.63 ± 0.18 kcal/mol
SMKPPVVEIKAKVVEVKEVNGKLYVKVEITEIKDAPPEVKELIKEGKTILVEVKPGEEVKEGDEVTIKIVSA [r9_557_TrROS_Hall],folding stability dG unfold,[1],2.32 ± 0.3 kcal/mol
same,folding stability dG unfold,[2],2.03 ± 0.22 kcal/mol
same,folding stability dG unfold,[3],2.46 ± 0.21 kcal/mol
SAGGSAGGSPNTIEIWIQIPPGDPEKVEEIAKKLRDEGFKDIKVDEVHRNPDDSYYVEIKITVSAGGSAGGS [r12_91_TrROS],folding stability dG unfold,[1],1.42 ± 0.083 kcal/mol
same,folding stability dG unfold,[2],1.12 ± 0.025 kcal/mol
same,folding stability dG unfold,[3],1.55 ± 0.12 kcal/mol
SAGGSAGGSAKVTYTENSVTIHAKVPEKPLKIEIPNTGKVVTIDLDKEVTVTFPVPKPPDESAGGSAGGSAG [r3_185_TrMRF],folding stability dG unfold,[1],-0.624 ± 0.17 kcal/mol
same,folding stability dG unfold,[2],-0.454 ± 0.1 kcal/mol
same,folding stability dG unfold,[3],-0.786 ± 0.07 kcal/mol
SAGGIKELAKKGYEIKEVTVRVRNKDGSVYEITEIKVVDGELYIKVKNKKTGKIEEKKIPLKDIEIVPSAGG [r13_340_TrROS_Hall],folding stability dG unfold,[1],1.83 ± 0.09 kcal/mol
same,folding stability dG unfold,[2],2.12 ± 0.029 kcal/mol
same,folding stability dG unfold,[3],1.19 ± 0.045 kcal/mol
SAGGSAGGSAGGKKYIIKNKKTNKYIEVDVIEKDGKLYVYDKKTGKVHEVSLKDLEIVPSAGGSAGGSAGGS [r10_28_TrROS_Hall],folding stability dG unfold,[1],2.33 ± 0.089 kcal/mol
same,folding stability dG unfold,[2],2.56 ± 0.036 kcal/mol
same,folding stability dG unfold,[3],1.84 ± 0.088 kcal/mol
SAMPKPALTIEIPLPNGQTVRIDVYYDPETGTYTVNVTRTLPNGEPFTRTYTVESPEEAIKNIEVTDFGSAG [r14_749_TrMRF],folding stability dG unfold,[1],3.24 ± 0.12 kcal/mol
same,folding stability dG unfold,[2],3.18 ± 0.078 kcal/mol
same,folding stability dG unfold,[3],3.29 ± 0.13 kcal/mol
SLSEEEAKDNPEEANEKMQPPPVPPIPLPVPIRNPDNKQEFPAPFEIRTLPNHLEFRFPGNGKPFPVPIDSA [r9_548_TrROS],folding stability dG unfold,[1],2.63 ± 0.28 kcal/mol
same,folding stability dG unfold,[2],2.87 ± 0.11 kcal/mol
same,folding stability dG unfold,[3],2.53 ± 0.24 kcal/mol
SAGGSAGGSAGMEPPEIKVEVSSDPTPSGMKVETIKDLGKGKTIIVLKPEDGSVSTSTLESAGGSAGGSAGG [r11_55_JUSTAS],folding stability dG unfold,[1],0.0414 ± 0.44 kcal/mol
same,folding stability dG unfold,[2],0.286 ± 0.13 kcal/mol
same,folding stability dG unfold,[3],-0.0544 ± 0.19 kcal/mol
SAGGSAGGMPPVSLPETPVTITDPATGKPRLVTVLAAAPDGTLTVRFPDGSEVTVAGEPLLELESAGGSAGG [r6_435_JUSTAS],folding stability dG unfold,[1],0.878 ± 0.051 kcal/mol
same,folding stability dG unfold,[2],1.05 ± 0.019 kcal/mol
same,folding stability dG unfold,[3],0.446 ± 0.042 kcal/mol
SAGGSAGGSMYKVEIEIETSPEGGITIKVTIIPPDGSVIEGNLTPEEVAKRFGFPPPEILELLSAGGSAGGS [r20_235_JUSTAS],folding stability dG unfold,[1],2.48 ± 0.14 kcal/mol
same,folding stability dG unfold,[2],3.03 ± 0.062 kcal/mol
same,folding stability dG unfold,[3],2.21 ± 0.049 kcal/mol
SAGGSVDVSYDPSTGVVTVTIPSPTGSIGEEEVERVARELKEKYPNVTVSFTPSPGPAVTVTITIPGGSAGG [r13_291_JUSTAS],folding stability dG unfold,[1],2.08 ± 0.074 kcal/mol
same,folding stability dG unfold,[2],2.24 ± 0.042 kcal/mol
same,folding stability dG unfold,[3],1.71 ± 0.07 kcal/mol
SAGGSAMIVIPVDPNDPAAEKTVAEAIAAGKDVIIRSPSGKYTFYKPDGSKKELSSEEEIKKAGLESAGGSA [r15_94_JUSTAS],folding stability dG unfold,[1],0.0288 ± 0.19 kcal/mol
same,folding stability dG unfold,[2],-0.495 ± 0.77 kcal/mol
same,folding stability dG unfold,[3],0.249 ± 0.086 kcal/mol
SMKTVVIKIRKKDGKVTLEEIREAIKALLPPGAKVKLTEEELEKLVEELEKKTGKEITADDLVIVVEVEPSA [r9_197_TrROS_Hall],folding stability dG unfold,[1],2.51 ± 0.16 kcal/mol
same,folding stability dG unfold,[2],2.59 ± 0.081 kcal/mol
same,folding stability dG unfold,[3],2.29 ± 0.085 kcal/mol
SAGGMYLVKIKVKIDSPTSEKERDLYILAEPDTDVEEIVKKIPGAKNIEIEVEIIPPSENPEIASNPLSAGG [r19_339_JUSTAS],folding stability dG unfold,[1],0.684 ± 0.25 kcal/mol
same,folding stability dG unfold,[2],0.7 ± 0.15 kcal/mol
same,folding stability dG unfold,[3],0.645 ± 0.12 kcal/mol
SAMVLVKIELYDPENEEPLATAEFVVPEEDLEAFVEEAKKIFGVAEDAFIKVEAAPLEPLTDESGEEVLSAG [r14_297_TrMRF],folding stability dG unfold,[1],1.94 ± 0.062 kcal/mol
same,folding stability dG unfold,[2],1.786 ± 0.014 kcal/mol
same,folding stability dG unfold,[3],2.08 ± 0.12 kcal/mol
KTRHIPIRDALDEAEELIDEGPRMVKITIYNNNGQKHEIETLKDILDKLKSNFPGMPPDNMKVQVEVIPPPS [r1_325_TrROS],folding stability dG unfold,[1],-0.211 ± 0.3 kcal/mol
same,folding stability dG unfold,[2],-0.0938 ± 0.22 kcal/mol
same,folding stability dG unfold,[3],-0.297 ± 0.68 kcal/mol
SAGGSAGGSASSMVTVTVSVSPDEGDEEVAKEIAKELGRPDAKVTKITYDPATGTLTITLVDSAGGSAGGSA [r18_481_JUSTAS],folding stability dG unfold,[1],1.58 ± 0.11 kcal/mol
same,folding stability dG unfold,[2],1.53 ± 0.062 kcal/mol
same,folding stability dG unfold,[3],1.61 ± 0.067 kcal/mol
SAGMYTITISRLPGGEYEVRVTDAANGEEVARRPVASEEEARAEAERIAAEIAEADPDVEVRVSESDAESAG [r5_383_JUSTAS],folding stability dG unfold,[1],2.83 ± 0.04 kcal/mol
same,folding stability dG unfold,[2],2.959 ± 0.023 kcal/mol
same,folding stability dG unfold,[3],2.51 ± 0.066 kcal/mol
SAGGSAGGMTIEEKAEELEEELKKKYPDMEVKVEVDPEKGIVKITITDPKNPGKTTELTFPVEESAGGSAGG [r6_478_JUSTAS],folding stability dG unfold,[1],3.36 ± 0.15 kcal/mol
same,folding stability dG unfold,[2],2.23 ± 0.19 kcal/mol
same,folding stability dG unfold,[3],4.2 ± 0.45 kcal/mol
SKLVEKIAEEFGISSAMPHPDGQFMIMFPDGYMIKINIEIDEVKPKPDGKPELDLDIEIEIIPMPPPDDMSA [r9_648_TrROS],folding stability dG unfold,[1],2.39 ± 0.19 kcal/mol
same,folding stability dG unfold,[2],2.74 ± 0.072 kcal/mol
same,folding stability dG unfold,[3],2.05 ± 0.067 kcal/mol
